Measured values as given in patent US8318163 (Genentech, dated 2012).

Columns and labels:
[1] = target: the molecule itself; experiment: multi-angle light scattering, self-association
human Nrp2 b1b2 = target: T1, human Nrp2 b1b2 (human, UniProt O60462 275-595); experiment: BIAcore (SPR), 500 nM Nrp protein injected over immobilized IgG at 25 C
T1 construct: range 275-595; Range is that of the crystallization construct; also called Nrp2 b1b2 domains
T1 sequence (looked up): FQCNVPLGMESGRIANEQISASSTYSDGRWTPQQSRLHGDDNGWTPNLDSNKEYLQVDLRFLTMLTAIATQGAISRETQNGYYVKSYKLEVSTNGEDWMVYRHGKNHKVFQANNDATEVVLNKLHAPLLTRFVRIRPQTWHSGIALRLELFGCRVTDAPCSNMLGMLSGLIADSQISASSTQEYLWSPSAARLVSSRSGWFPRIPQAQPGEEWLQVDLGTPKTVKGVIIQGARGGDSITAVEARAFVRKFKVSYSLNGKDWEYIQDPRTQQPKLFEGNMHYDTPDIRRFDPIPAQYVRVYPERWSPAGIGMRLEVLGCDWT
Description: (§1) Figure 11: FIG. 11—Analysis of anti-Nrp antibody binding kinetics. BIAcore kinetic analysis of anti-panNrp[4] antibody.

[2] = target: T2, human Nrp1 protein (BIAcore analyte) (human, UniProt O14786 22-586, limits assumed); experiment: BIAcore, IgG immobilized on the chip, human NRP protein injected, 25 C; Nrp1 (first of the two affinities)
T2 construct: no residue range for such an Nrp1 construct is printed; also called neuropilin-1
T2 sequence (looked up): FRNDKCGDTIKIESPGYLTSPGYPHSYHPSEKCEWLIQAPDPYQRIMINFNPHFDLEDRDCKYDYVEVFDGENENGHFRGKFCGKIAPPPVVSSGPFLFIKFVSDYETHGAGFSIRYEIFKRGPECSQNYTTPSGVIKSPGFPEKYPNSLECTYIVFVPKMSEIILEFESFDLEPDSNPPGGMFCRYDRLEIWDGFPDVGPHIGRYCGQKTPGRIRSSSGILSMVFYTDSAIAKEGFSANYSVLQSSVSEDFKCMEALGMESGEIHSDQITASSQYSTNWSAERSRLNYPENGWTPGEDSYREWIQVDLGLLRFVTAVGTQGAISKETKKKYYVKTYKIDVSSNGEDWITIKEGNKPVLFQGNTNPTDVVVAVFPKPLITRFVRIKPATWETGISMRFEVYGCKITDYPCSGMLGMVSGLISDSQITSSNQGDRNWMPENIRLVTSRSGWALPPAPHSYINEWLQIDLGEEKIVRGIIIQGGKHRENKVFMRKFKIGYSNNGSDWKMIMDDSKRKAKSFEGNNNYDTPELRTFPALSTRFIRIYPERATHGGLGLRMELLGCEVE
Description: as §1

human Nrp2 a1a2b1b2 = target: T3, human Nrp2 a1a2b1b2 (human, UniProt O60462 21-595, N-glycosylated (two sites within the a2 domain seen in the monoclinic crystal form)); experiment: BIAcore, IgG immobilized on the chip, human NRP protein injected, 25 C; Nrp2 (second of the two affinities)
T3 construct: range 1-595; The printed range begins at Met1 and so includes the native signal peptide, which is cleaved on secretion
T3 sequence: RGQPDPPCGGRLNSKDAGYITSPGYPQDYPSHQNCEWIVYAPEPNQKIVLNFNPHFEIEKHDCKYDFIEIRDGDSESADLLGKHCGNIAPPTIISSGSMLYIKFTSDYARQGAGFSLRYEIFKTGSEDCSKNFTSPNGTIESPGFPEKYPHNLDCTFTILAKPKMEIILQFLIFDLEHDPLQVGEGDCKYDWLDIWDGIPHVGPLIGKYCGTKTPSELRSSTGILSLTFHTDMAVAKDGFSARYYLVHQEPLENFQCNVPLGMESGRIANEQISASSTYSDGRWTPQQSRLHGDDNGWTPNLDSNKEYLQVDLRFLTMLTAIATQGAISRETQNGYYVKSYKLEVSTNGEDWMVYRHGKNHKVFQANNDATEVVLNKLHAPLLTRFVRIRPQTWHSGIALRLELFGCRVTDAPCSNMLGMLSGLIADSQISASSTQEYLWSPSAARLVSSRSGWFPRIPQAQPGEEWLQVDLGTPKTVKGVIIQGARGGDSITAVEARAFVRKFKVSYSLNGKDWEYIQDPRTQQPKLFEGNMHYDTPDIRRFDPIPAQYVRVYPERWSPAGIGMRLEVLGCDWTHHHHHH
Description: as §1

B1: full-length human Nrp2-ECD (a1a2b1b2c) (receptor)
chain: RGQPDPPCGGRLNSKDAGYITSPGYPQDYPSHQNCEWIVYAPEPNQKIVLNFNPHFEIEKHDCKYDFIEIRDGDSESADLLGKHCGNIAPPTIISSGSMLYIKFTSDYARQGAGFSLRYEIFKTGSEDCSKNFTSPNGTIESPGFPEKYPHNLDCTFTILAKPKMEIILQFLIFDLEHDPLQVGEGDCKYDWLDIWDGIPHVGPLIGKYCGTKTPSELRSSTGILSLTFHTDMAVAKDGFSARYYLVHQEPLENFQCNVPLGMESGRIANEQISASSTYSDGRWTPQQSRLHGDDNGWTPNLDSNKEYLQVDLRFLTMLTAIATQGAISRETQNGYYVKSYKLEVSTNGEDWMVYRHGKNHKVFQANNDATEVVLNKLHAPLLTRFVRIRPQTWHSGIALRLELFGCRVTDAPCSNMLGMLSGLIADSQISASSTQEYLWSPSAARLVSSRSGWFPRIPQAQPGEEWLQVDLGTPKTVKGVIIQGARGGDSITAVEARAFVRKFKVSYSLNGKDWEYIQDPRTQQPKLFEGNMHYDTPDIRRFDPIPAQYVRVYPERWSPAGIGMRLEVLGCDWTDSKPTVETLGPTVKSEETTTPYPTEEEATECGENCSFEDDKDLQLPSGFNCNFDFLEEPCGWMYDHAKWLRTTWASSSSPNDRTFPDDRNFLRLQSDSQREGQYARLISPPVHLPRSPVCMEFQYQATGGRGVALQVVREASQESKLLWVIREDQGGEWKHGRIILPSYDMEYQIVFEGVIGKGRSGEIAIDDIRISTDVPLENCMEPISAFAGENFKVDIPEIHEREGYEDEIDDEYEVDWSNSSSATSGSGAPSTDKEKSWLYTLDPHHHHHH
notes: extracellular domain
[1]
  binding result: no binding

B2: human Nrp2 a2b1b2 (receptor, UniProt O60462 145-595, looked up)
chain: GSEDCSKNFTSPNGTIESPGFPEKYPHNLDCTFTILAKPKMEIILQFLIFDLEHDPLQVGEGDCKYDWLDIWDGIPHVGPLIGKYCGTKTPSELRSSTGILSLTFHTDMAVAKDGFSARYYLVHQEPLENFQCNVPLGMESGRIANEQISASSTYSDGRWTPQQSRLHGDDNGWTPNLDSNKEYLQVDLRFLTMLTAIATQGAISRETQNGYYVKSYKLEVSTNGEDWMVYRHGKNHKVFQANNDATEVVLNKLHAPLLTRFVRIRPQTWHSGIALRLELFGCRVTDAPCSNMLGMLSGLIADSQISASSTQEYLWSPSAARLVSSRSGWFPRIPQAQPGEEWLQVDLGTPKTVKGVIIQGARGGDSITAVEARAFVRKFKVSYSLNGKDWEYIQDPRTQQPKLFEGNMHYDTPDIRRFDPIPAQYVRVYPERWSPAGIGMRLEVLGCDWT
notes: range 145-595; Purified on Ni-NTA; the tag of this construct is not described
[1]
  binding result: no binding

B3: anti-panNrp^A antibody, clone YW68.11.26 (IgG) (antibody, V domains shown)
VH: EVQLVESGGGLVQPGGSLRLSCAASGFTISGYGIHWVRQAPGKGLEWVAYIYPDSGYTDYADSVKGRFTISADTSKNTAYLQMNSLRAEDTAVYYCAREDFRNRRRLWYVMDYWGQGT
VL: DIQMTQSPSSLSASVGDRVTITCRASQDVSTAVAWYQQKPGKAPKLLIYSASFLYSGVPSRFSGSGSGTDFTLTDSSLQPEDFATYYCQQAWAYLTTFGQGTKVEIKR
notes: Human IgG1 from a synthetic phage library; immobilized as IgG on the BIAcore chip
Human Nrp2 b1b2
  binding result: no binding (tested: 500 nM)
[2]
  Kd: 0.21 nM
Human Nrp2 a1a2b1b2
  Kd: 0.15 nM
